Legend:
[1] = biological target: T1, TBX3 (human, UniProt O15119 1-743, limits assumed); assay: IP and immunoblot, primary human fibroblasts
T1 sequence (looked up): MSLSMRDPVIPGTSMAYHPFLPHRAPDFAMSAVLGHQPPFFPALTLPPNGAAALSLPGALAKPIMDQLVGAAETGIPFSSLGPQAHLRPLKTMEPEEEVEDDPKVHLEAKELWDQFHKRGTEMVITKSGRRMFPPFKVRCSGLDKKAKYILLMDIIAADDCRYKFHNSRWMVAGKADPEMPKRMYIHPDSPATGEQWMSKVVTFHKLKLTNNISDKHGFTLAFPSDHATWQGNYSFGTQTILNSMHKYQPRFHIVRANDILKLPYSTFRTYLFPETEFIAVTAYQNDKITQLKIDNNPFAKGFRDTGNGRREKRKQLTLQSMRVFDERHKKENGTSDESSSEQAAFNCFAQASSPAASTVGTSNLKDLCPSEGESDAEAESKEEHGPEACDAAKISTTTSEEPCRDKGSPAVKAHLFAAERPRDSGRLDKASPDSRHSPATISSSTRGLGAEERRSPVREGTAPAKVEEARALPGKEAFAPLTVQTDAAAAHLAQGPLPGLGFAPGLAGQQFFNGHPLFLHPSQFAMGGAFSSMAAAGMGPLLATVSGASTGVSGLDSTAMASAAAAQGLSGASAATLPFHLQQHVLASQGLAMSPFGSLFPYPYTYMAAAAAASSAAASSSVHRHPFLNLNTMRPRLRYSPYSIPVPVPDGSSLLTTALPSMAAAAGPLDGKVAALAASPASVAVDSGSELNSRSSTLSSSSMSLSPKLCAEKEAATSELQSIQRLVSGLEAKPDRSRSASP

[2] = biological target: EZH2 (human, UniProt Q15910 1-746, limits assumed); assay: IP and immunoblot, T47D cells and primary human fibroblasts
EZH2, sequence (Q15910 whole entry): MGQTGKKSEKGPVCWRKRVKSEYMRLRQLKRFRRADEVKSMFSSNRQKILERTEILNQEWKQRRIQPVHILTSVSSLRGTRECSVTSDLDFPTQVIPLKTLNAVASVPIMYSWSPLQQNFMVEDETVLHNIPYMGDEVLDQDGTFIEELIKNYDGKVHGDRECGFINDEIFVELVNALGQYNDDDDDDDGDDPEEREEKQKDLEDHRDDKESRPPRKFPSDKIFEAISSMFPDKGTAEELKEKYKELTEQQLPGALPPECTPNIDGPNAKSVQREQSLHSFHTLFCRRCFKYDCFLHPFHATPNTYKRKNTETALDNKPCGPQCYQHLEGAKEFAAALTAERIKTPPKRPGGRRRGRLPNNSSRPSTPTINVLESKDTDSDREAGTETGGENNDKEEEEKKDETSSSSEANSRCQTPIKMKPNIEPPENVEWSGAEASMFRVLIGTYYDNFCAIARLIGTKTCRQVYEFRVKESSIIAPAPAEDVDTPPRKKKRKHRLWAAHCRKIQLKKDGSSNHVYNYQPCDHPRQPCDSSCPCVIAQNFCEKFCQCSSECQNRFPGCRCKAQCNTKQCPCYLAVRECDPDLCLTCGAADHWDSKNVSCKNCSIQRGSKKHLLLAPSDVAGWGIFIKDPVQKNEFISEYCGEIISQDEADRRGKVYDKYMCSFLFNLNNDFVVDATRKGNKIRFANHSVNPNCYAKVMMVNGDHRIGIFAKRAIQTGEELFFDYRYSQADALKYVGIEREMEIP

[3] = biological target: T2, estrogen receptor (ERα) (human, UniProt P03372 1-595); assay: IP and immunoblot, T47D, MDA-MB231 and PME cells (FIG. 14F)
T2 construct: also called ESR1
T2 sequence (looked up): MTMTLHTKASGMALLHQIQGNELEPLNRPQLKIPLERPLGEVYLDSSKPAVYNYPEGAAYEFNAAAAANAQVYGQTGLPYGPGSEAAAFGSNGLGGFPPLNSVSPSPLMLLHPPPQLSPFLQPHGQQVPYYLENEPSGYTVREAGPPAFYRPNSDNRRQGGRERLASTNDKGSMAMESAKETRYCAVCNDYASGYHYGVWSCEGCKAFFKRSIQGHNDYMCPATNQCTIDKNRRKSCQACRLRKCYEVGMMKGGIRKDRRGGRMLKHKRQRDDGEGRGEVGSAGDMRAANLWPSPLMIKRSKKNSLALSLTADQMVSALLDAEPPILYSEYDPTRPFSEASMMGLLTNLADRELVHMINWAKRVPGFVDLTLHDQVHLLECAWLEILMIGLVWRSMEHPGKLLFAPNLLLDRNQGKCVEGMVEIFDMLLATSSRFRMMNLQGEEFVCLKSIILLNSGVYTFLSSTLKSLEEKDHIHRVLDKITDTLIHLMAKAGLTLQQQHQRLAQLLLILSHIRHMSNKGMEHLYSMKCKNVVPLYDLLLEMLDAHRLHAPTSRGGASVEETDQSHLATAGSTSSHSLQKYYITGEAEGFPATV

[4] = biological target: HCF-1 (human, UniProt P51610 2-2035, limits assumed); assay: as above
HCF-1, sequence (P51610 2-2035 limits assumed): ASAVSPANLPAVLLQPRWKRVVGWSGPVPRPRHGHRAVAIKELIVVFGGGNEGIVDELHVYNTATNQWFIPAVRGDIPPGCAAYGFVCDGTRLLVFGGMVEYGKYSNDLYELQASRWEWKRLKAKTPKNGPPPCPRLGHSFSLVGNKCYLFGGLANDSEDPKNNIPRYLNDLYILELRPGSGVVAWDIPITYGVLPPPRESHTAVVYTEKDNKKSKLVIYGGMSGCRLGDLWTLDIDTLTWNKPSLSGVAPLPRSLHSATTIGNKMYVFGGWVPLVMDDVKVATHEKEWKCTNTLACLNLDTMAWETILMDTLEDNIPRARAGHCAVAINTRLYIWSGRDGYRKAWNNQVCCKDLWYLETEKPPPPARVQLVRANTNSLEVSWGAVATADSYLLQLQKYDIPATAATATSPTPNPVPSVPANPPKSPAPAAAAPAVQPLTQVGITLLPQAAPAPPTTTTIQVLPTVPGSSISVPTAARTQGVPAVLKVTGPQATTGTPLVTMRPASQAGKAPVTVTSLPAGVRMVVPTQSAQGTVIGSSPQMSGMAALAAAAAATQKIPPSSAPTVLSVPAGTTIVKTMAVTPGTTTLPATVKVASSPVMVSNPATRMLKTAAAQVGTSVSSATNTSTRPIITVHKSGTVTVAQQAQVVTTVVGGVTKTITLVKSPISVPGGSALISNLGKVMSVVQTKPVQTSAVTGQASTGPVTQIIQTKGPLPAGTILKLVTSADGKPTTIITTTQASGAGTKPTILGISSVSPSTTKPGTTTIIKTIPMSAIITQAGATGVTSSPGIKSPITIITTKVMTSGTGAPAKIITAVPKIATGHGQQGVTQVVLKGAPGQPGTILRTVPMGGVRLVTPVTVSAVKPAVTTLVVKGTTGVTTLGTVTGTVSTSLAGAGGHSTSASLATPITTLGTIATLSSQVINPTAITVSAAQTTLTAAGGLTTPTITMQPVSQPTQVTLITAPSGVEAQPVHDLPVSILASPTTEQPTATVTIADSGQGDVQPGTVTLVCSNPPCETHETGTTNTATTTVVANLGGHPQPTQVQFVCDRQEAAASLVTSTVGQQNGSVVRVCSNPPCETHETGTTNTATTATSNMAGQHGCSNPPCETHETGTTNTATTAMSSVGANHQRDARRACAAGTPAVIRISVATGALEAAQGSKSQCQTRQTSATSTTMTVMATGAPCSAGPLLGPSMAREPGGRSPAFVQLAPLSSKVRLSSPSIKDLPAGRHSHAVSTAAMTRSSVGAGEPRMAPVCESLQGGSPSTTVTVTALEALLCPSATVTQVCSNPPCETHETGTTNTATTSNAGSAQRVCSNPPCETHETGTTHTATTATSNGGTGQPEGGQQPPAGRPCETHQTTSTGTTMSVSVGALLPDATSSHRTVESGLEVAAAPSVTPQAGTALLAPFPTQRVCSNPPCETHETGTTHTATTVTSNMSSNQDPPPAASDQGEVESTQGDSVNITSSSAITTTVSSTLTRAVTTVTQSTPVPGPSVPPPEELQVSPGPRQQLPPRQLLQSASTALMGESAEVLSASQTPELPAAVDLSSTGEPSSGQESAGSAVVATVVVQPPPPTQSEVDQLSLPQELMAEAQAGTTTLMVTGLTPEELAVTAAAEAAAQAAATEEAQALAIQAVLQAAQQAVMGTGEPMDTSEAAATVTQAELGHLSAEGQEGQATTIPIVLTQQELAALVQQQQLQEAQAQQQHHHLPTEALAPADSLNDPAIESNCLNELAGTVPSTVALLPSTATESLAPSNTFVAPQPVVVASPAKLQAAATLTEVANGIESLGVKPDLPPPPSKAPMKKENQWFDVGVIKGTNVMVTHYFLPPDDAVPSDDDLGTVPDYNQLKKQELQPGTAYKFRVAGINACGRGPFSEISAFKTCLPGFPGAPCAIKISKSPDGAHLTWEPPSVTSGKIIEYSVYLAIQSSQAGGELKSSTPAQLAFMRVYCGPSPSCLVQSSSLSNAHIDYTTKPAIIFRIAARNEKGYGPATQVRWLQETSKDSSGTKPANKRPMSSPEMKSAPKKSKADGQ

B1: CAPERα (Coactivator of AP1 and Estrogen Receptor) (other, human, UniProt Q14498 2-530, looked up)
chain: ADDIDIEAMLEAPYKKDENKLSSANGHEERSKKRKKSKSRSRSHERKRSKSKERKRSRDRERKKSKSRERKRSRSKERRRSRSRSRDRRFRGRYRSPYSGPKFNSAIRGKIGLPHSIKLSRRRSRSKSPFRKDKSPVREPIDNLTPEERDARTVFCMQLAARIRPRDLEEFFSTVGKVRDVRMISDRNSRRSKGIAYVEFVDVSSVPLAIGLTGQRVLGVPIIVQASQAEKNRAAAMANNLQKGSAGPMRLYVGSLHFNITEDMLRGIFEPFGRIESIQLMMDSETGRSKGYGFITFSDSECAKKALEQLNGFELAGRPMKVGHVTERTDASSASSFLDSDELERTGIDLGTTGRLQLMARLAEGTGLQIPPAAQQALQMSGSLAFGAVAEFSFVIDLQTRLSQQTEASALAAAASVQPLATQCFQLSNMFNPQTEEEVGWDTEIKDDVIEECNKHGGVIHIYVDKNSAQGNVYVKCPSIAAAIAAVNALHGRWFAGKMITAAYVPLPTYHNLFPDSMTATQLLVPSRR
notes: Endogenous protein immunoprecipitated or blotted from Dignam lysates; also called RBM39
[1]
  binding result: binds
[2]
  binding result: binds
[3]
  binding result: no binding
[4]
  binding result: no binding
